Results: article PMC2920259 (Nature structural & molecular biology, 2010)

Target: the molecule itself
Test: crystal structure

B1: IbpAFic2^H3717A (domain or fragment, Histophilus somni, UniProt Q06277 3482-3797, looked up)
chain: DETANKVNYQDLEDNLNLKGLISLEDDRNANFESNVLKNEKFLDEAREISKKSIPEATVKQMSHLPEFDDILTEGAKKVESRINKAITFRPSVEEFSEIQDLVKTLPKTKVIEDLSTKTNEITEALAATSKTIQRTPELKEQLKTAIEDFLQNSQGKPLTVQMIENLNHGLRPDEGEGRLLYKKENLTKENAVFSSPEAAKIQLAETVDFINRAKNEGIEPSVVGALVYQRLIAYAPFAEGNGRMARVIVNKILLDAGYPAFTKFSDEFEPQIIPQTKASTKSATSSEVVVEFLKELAKKGSKEDNEQNLEKTDRT
binding result: binds
